Assay results published in patent publication US20200062863A1 (CSL BEHRING, published 2020).
Positions count from the first letter of the chain named. Where two headings read alike, the source gives them in different places.

Tests used:
[1] = target: T1, human Factor XIIa-alpha (human, UniProt P00748 20-615); experiment: cell-based or functional assay
T1 sequence: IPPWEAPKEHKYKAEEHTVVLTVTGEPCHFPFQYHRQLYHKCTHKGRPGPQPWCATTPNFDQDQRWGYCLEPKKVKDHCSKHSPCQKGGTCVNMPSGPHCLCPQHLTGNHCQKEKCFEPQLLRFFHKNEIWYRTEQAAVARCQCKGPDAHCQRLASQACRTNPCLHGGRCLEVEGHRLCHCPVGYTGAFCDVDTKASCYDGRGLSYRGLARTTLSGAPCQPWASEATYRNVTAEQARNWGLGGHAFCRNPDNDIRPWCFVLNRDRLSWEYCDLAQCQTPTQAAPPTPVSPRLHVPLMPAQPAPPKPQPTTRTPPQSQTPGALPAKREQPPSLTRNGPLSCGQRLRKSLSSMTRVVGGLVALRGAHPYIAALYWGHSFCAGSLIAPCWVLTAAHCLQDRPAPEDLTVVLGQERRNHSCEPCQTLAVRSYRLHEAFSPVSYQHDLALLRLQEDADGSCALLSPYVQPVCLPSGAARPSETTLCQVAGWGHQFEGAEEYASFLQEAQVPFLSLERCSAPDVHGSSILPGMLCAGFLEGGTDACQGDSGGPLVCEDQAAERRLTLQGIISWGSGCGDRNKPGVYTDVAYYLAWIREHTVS

[2] = target: T2, human FXIIa (human, UniProt P00748 20-615, limits assumed); experiment: competition phage ELISA on plate-coated FXIIa; competed binder: Inf4-phage (pTacInf4) at a fixed amount
T2 sequence: T1 sequence

[3] = target: T2, human FXIIa; experiment: competition phage ELISA on plate-coated FXIIa; competed binder: 3F7 Fab-phage at a fixed amount
[4] = target: T2, human FXIIa
[5] = target: T2, human FXIIa; experiment: competition phage ELISA on plate-coated FXIIa; competed binder: 3H4 Fab-phage at a fixed amount
[6] = target: T3, human Factor XIIa-beta (human, UniProt P00748 354-615, limits assumed); experiment: SPR (Biacore A100), unpurified IgG4 supernatant captured on anti-human IgG, single FXIIa beta concentration (100 nM), 37 C, 1:1 fit; estimated
T3 construct: Bought from Enzyme Research Laboratories; also called FXIIa beta; FXIIa-beta
T3 sequence: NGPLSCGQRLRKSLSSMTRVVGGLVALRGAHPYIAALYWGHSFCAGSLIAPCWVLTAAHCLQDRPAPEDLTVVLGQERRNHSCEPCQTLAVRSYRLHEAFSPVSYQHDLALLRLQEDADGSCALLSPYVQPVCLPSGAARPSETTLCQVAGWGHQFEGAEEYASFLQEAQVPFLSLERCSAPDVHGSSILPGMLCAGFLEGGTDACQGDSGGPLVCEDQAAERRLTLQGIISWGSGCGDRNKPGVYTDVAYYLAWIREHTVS
Experimental: Anti-human (Goat anti-human IgG (gamma) mouse adsorbed, Invitrogen, Cat No. H10500) was chemically immobilised on a CM-5 sensor surface using amine coupling chemistry. Culture supernatants were diluted 1/60 with running buffer before capture. Antibodies were captured for 180 seconds representing an average capture of 800 response units (RU). FXIIa beta was then injected at zero and 100 nM for 180 seconds, and dissociated for 180 seconds. All assays were conducted on a Biacore A100 instrument at 37 degrees Celsius and the data fitted to a 1:1 kinetic model.

[7] = target: T3, human Factor XIIa-beta; experiment: SPR (Biacore), purified IgG4 captured on anti-human IgG, FXIIa beta 0-40 nM, 1:1 fit, 25 C
[8] = target: T3, human Factor XIIa-beta; experiment: SPR (Biacore), KD against parental 3F7

“rHA-Infestin-4 (recombinant Infestin-4 fused to human albumin)” showed a % Inhibition, ratio FXIIa-alpha:inhibitor 1:1 [1] of 90%, an IC50 (read off the curve) [2] of 3 nM and an IC50 (read off the curve) [3] of 5 nM. The IC50 (read off the curve) [4] was 9 nM and the IC50 (read off the curve) [5] was 5 nM.

B1: VR63 (antibody, V domains shown)
VH: EVQLLESGGGLVQPGGSLRLSCAASGFTFSKYIMQWVRQAPGKGLEWVSGIRPSGGTTVYADSVKGRFTISRDNSKNTLYLQMNSLRAEDTAVYYCARALPRSGYLISPHYYYYALDVWGQGTTVTVSS
VL: QSELTQPPSASGTPGQRVTISCSGSSSNIGRNYVYWYQQVPGTAPKLLIYSNNQRPSGVPDRFSGSKSGTSASLVISGLRSEDEADYYCAAWDNQVRLGFGGGTKLTVLG
notes: Libraries were built on germline stop templates, so frameworks may differ
B1 showed a Kd [6] of 8.3 nM.

B2: VR24 (antibody, V domains shown)
VH: B1 VH
VL: QSVLTQPPSASGTPGQRVTISCSGSSEMTVHHYVYWYQQLPGTAPKLLIYSNNQRPSGVPDRFSGSKSGTSASLAISGLRSEDEADYYCAAWDASLRGVFGGGTKLTVLG
For B2, the Kd [7] was 0.26 nM, the koff [7] was 6.4e-05 s⁻¹ and the kon [7] was 240000 M⁻¹ s⁻¹. The “% Inhibition, ratio FXIIa-alpha:Antibody 1:0.1” value [1] was 34.5%, the “% Inhibition, ratio FXIIa-alpha:Antibody 1:0.2” value [1] was 67.3% and the “% Inhibition, ratio FXIIa-alpha:Antibody 1:0.5” value [1] was 99.7%. For the same molecule, the “% Inhibition, ratio FXIIa-alpha:Antibody 1:1” value [1] was 100%, the “% Inhibition, ratio FXIIa-alpha:Antibody 1:2” value [1] was 100% and the “% Inhibition, ratio FXIIa-alpha:Antibody 1:5” value [1] was 100%. The “% Inhibition, ratio FXIIa-alpha:Antibody 1:10” value [1] was 100%, the Kd [6] was 1.63 nM and the Fold affinity improvement [8] was 33 fold.

B3: VR62 (antibody, V domains shown)
VH: B1 VH
VL: QSVLTQPPSASGTPGQRVTISCSGSSSNIGRNYVYWYQQLPGTAPKLLIYSNNQRPSGVPDRFSGSKSGTSASLAISGLRSEDEADYYCAAWDQQVRLDFGGGTKLTVL
notes: as for B1
B3 showed a Kd [6] of 5.81 nM.

B4: VR99 (antibody, V domains shown)
VH: B1 VH with R52N, S54A, G55T, G56M
VL: B1 VL with N94A, Q95S, V96L, L98G, G99V
notes: as for B1
B4 gave a Kd [6] of 9.19 nM.

B5: VR159 (antibody, V domains shown)
VH: B1 VH with I107V, S108K, P109H, H110G
VL: B1 VL with N94A, Q95S, V96L, L98G, G99V
notes: as for B1
B5 showed a Kd [6] of 6.93 nM.

B6: VR58 (antibody, V domains shown)
VH: B1 VH
VL: B3 VL with Q94P, D99A
notes: as for B1
B6 was tested, and the Kd [6] was 5.33 nM.

B7: VR112 (antibody, V domains shown)
VH: B1 VH with R52N, P53V, S54P, G55V, G56Q, T57G
VL: B1 VL with N94A, Q95S, V96L, L98G, G99V
B7 gave a Kd [7] of 0.17 nM, a koff [7] of 4.3e-05 s⁻¹ and a kon [7] of 250000 M⁻¹ s⁻¹. For the same molecule, the “% Inhibition, ratio FXIIa-alpha:Antibody 1:0.1” value [1] was 39.9%, the “% Inhibition, ratio FXIIa-alpha:Antibody 1:0.2” value [1] was 68.7% and the “% Inhibition, ratio FXIIa-alpha:Antibody 1:0.5” value [1] was 99.7%. The “% Inhibition, ratio FXIIa-alpha:Antibody 1:1” value [1] was 100%, the “% Inhibition, ratio FXIIa-alpha:Antibody 1:2” value [1] was 100% and the “% Inhibition, ratio FXIIa-alpha:Antibody 1:5” value [1] was 100%. The “% Inhibition, ratio FXIIa-alpha:Antibody 1:10” value [1] was 100%, the Kd [6] was 1.52 nM and the Fold affinity improvement [8] was 51 fold.

B8: VR115 (antibody, V domains shown)
VH: B1 VH with R52D, P53I, S54P, G55T, G56K, T57G
VL: B1 VL with N94A, Q95S, V96L, L98G, G99V
B8 gave a Kd [7] of 0.15 nM, a koff [7] of 2.5e-05 s⁻¹ and a kon [7] of 170000 M⁻¹ s⁻¹. The “% Inhibition, ratio FXIIa-alpha:Antibody 1:0.1” value [1] was 39.4%, the “% Inhibition, ratio FXIIa-alpha:Antibody 1:0.2” value [1] was 72.8% and the “% Inhibition, ratio FXIIa-alpha:Antibody 1:0.5” value [1] was 100%. The “% Inhibition, ratio FXIIa-alpha:Antibody 1:1” value [1] was 100%, the “% Inhibition, ratio FXIIa-alpha:Antibody 1:2” value [1] was 100% and the “% Inhibition, ratio FXIIa-alpha:Antibody 1:5” value [1] was 100%. For the same molecule, the “% Inhibition, ratio FXIIa-alpha:Antibody 1:10” value [1] was 100%, the Kd [6] was 1.56 nM and the Fold affinity improvement [8] was 57 fold.

B9: VR52 (antibody, V domains shown)
VH: B1 VH
VL: B3 VL with Q94E, Q95R, D99M
notes: as for B1
B9 showed a Kd [6] of 7.1 nM.

B10: VR167 (antibody, V domains shown)
VH: B1 VH with I107M, S108K, P109T, H110G
VL: B1 VL with N94A, Q95S, V96L, L98G, G99V
notes: as for B1
Work on B10 yielded a Kd [6] of 5.8 nM.

B11: VR108 (antibody, V domains shown)
VH: B1 VH with R52N, S54A, G55T, G56K
VL: B1 VL with N94A, Q95S, V96L, L98G, G99V
notes: as for B1
Work on B11 yielded a Kd [6] of 2.81 nM.

B12: VR14 (antibody, V domains shown)
VH: B1 VH
VL: B3 VL with S27G, N28M, I29V, G30E, R31Q, Q94A, Q95S, V96L, L98G, D99V
notes: as for B1
Work on B12 yielded a Kd [6] of 6.22 nM.

B13: VR101 (antibody, V domains shown)
VH: B1 VH with R52N, S54A, G55T, G56R, T57S
VL: B1 VL with N94A, Q95S, V96L, L98G, G99V
notes: as for B1
For B13, the Kd [6] was 3.33 nM.

B14: VR107 (antibody, V domains shown)
VH: B1 VH with R52N, S54A, G55T, G56R
VL: B1 VL with N94A, Q95S, V96L, L98G, G99V
notes: as for B1
B14 was tested, and the Kd [6] was 2.45 nM.

B15: VR109 (antibody, V domains shown)
VH: B1 VH with R52N, S54A, G55T, G56N
VL: B1 VL with N94A, Q95S, V96L, L98G, G99V
notes: as for B1
For B15, the Kd [6] was 5.98 nM.

B16: VR46 (antibody, V domains shown)
VH: B1 VH
VL: B3 VL with A91S, D93E, Q94L, Q95P, V96L, L98G, D99V
notes: as for B1
With B16 the Kd [6] was 6.67 nM.

B17: VR53 (antibody, V domains shown)
VH: B1 VH
VL: B3 VL with L98K, D99T
notes: as for B1
Work on B17 yielded a Kd [6] of 7.05 nM.

B18: VR119 (antibody, V domains shown)
VH: B1 VH with R52N, P53V, S54P, G55L, G56Y, T57G
VL: B1 VL with N94A, Q95S, V96L, L98G, G99V
For B18, the Kd [7] was 0.36 nM, the koff [7] was 5.9e-05 s⁻¹ and the kon [7] was 160000 M⁻¹ s⁻¹. The Kd [6] was 1.31 nM and the Fold affinity improvement [8] was 24 fold.

B19: VR160 (antibody, V domains shown)
VH: B1 VH with I107M, S108K, H110G
VL: B1 VL with N94A, Q95S, V96L, L98G, G99V
notes: as for B1
B19 showed a Kd [6] of 7.13 nM.

B20: VR110 (antibody, V domains shown)
VH: B1 VH with R52D, P53M, S54P, G55T, G56K, T57G
VL: B1 VL with N94A, Q95S, V96L, L98G, G99V
In the case of B20, the Kd [7] is reported as 0.35 nM, the koff [7] is reported as 3.9e-05 s⁻¹ and the kon [7] is reported as 110000 M⁻¹ s⁻¹. It also gave a % Inhibition, ratio FXIIa-alpha:Antibody 1:0.1 [1] of 33.7%, a % Inhibition, ratio FXIIa-alpha:Antibody 1:0.2 [1] of 66.9% and a % Inhibition, ratio FXIIa-alpha:Antibody 1:0.5 [1] of 100%. The % Inhibition, ratio FXIIa-alpha:Antibody 1:1 [1] was 100%, the % Inhibition, ratio FXIIa-alpha:Antibody 1:2 [1] was 100% and the % Inhibition, ratio FXIIa-alpha:Antibody 1:5 [1] was 100%. The % Inhibition, ratio FXIIa-alpha:Antibody 1:10 [1] was 100%, the Kd [6] was 2.04 nM and the Fold affinity improvement [8] was 25 fold.

B21: VR149 (antibody, V domains shown)
VH: B1 VH with I107M, S108K, P109K, H110N
VL: B1 VL with N94A, Q95S, V96L, L98G, G99V
notes: as for B1
Work on B21 yielded a Kd [6] of 5.12 nM.

B22: VR148 (antibody, V domains shown)
VH: B1 VH with I107V, S108K, P109K, H110Q
VL: B1 VL with N94A, Q95S, V96L, L98G, G99V
notes: as for B1
B22 showed a Kd [6] of 6.93 nM.

B23: VR39 (antibody, V domains shown)
VH: B1 VH
VL: B3 VL with A91S, D93W, Q94N, Q95D, V96L, L98G, D99V
notes: as for B1
B23 was tested, and the Kd [6] was 5.63 nM.

B24: VR103 (antibody, V domains shown)
VH: B1 VH with R52D, P53V, S54P, G55V, G56R, T57G
VL: B1 VL with N94A, Q95S, V96L, L98G, G99V
notes: as for B1
Work on B24 yielded a Kd [6] of 2.87 nM.
